# From the supplement of paper PMC6757056
# ± gives the standard deviation of the averaged measurements.
# B1: library; a variant is named by its letters at N, in order (parent)
# chain: GCUGUCACCGGUGCUUGGUACGUUAUAUUCAGCCGGUCUGAUGAGUCUNNNNNNAGACGAAACAGC
# Tests used:
# (6R,S)-folinic acid [1] = variants of: B1; test: normalized RNA/DNA level without ligand (relative to sTRSVctl = 100) (log10 (% of sTRSVctl)); HEK293T overexpressing SLC46A1; higher = less ribozyme self-cleavage, higher mRNA level; conditions: without (6R,S)-folinic acid; ligand present: no
# In short: (§1)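 Ribozyme switch library plasmids linked to reporters were introduced into HEK293T cells at 4 µg per 6-well well, with ligand, if any, added 1 h before. Total RNA was extracted with EDTA 72 h later, reverse-transcribed, amplified, barcoded and sequenced. RNA level was computed from RNA over DNA reads relative to a spiked-in non-cleaving sequence or the top sequences, then scaled and log-transformed. The top set was 25 sequences, values were ×100 and log10, and the cutoff was ≥100 DNA reads.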
# (6R,S)-folinic acid [2] = variants of: B1; test: normalized RNA/DNA level with ligand (relative to sTRSVctl = 100) (log10 (% of sTRSVctl)); HEK293T overexpressing SLC46A1; ligand concentration (+) RNA-Seq: 6 mM; higher = less ribozyme self-cleavage, higher mRNA level; conditions: with (6R,S)-folinic acid; ligand present: yes
# In short: as §1
# (6R,S)-folinic acid [3] = variants of: B1; test: FACS-Seq fitted mean relative fluorescence mCherry/BFP without ligand (log10 relative fluorescence); HEK293T overexpressing SLC46A1; higher = higher reporter protein expression; conditions: without (6R,S)-folinic acid; ligand present: no
# In short: (§2)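 After lentiviral transduction, HEK293T library cells bearing an mCherry ribozyme-switch reporter and an EF1α-BFP marker were enriched. They were then held for 48 h with or without ligand and sorted by mCherry/BFP into 6 bins, and each bin's genomic DNA was PCR-amplified, barcoded and MiSeq-sequenced. Fluorescence is expressed as a normalized fitted mean: the normal mean of log10(mCherry/BFP) bin counts, scaled to five spiked-in control ribozymes.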
# (6R,S)-folinic acid [4] = variants of: B1; test: FACS-Seq fitted mean relative fluorescence mCherry/BFP with ligand (log10 relative fluorescence); HEK293T overexpressing SLC46A1; ligand concentration (+) FACS-Seq: 6 mM; higher = higher reporter protein expression; conditions: with (6R,S)-folinic acid; ligand present: yes
# In short: as §2
Variant,"normalized RNA/DNA level without ligand (log10) ((6R,S)-folinic acid [1])","normalized RNA/DNA level with ligand (log10) ((6R,S)-folinic acid [2])","FACS-Seq fitted mean (log10) ((6R,S)-folinic acid [3])","FACS-Seq fitted mean (log10) ((6R,S)-folinic acid [4])"
AAAUCU,2.0432 ± 0.0014,2.03 ± 0.048,–,–
UAAGAC,1.984 ± 0.00031,2.01 ± 0.034,–,–
UAAGAU,1.9446 ± 0.0012,2.01 ± 0.024,–,–
GAAGCC,2.022 ± 0.0083,2.03 ± 0.047,–,–
GUUGCU,2.02 ± 0.023,2.008 ± 0.018,0.299 ± 0.016,0.44 ± 0.32
GUUGCG,1.91 ± 0.02,2.02 ± 0.038,0.325 ± 0.01,0.566 ± 0.19
GAAUUC,2.01 ± 0.0081,2.02 ± 0.024,–,–
GAAUUU,2.029 ± 0.01,2.01 ± 0.022,–,–
CAAGAC,2.026 ± 0.0013,2.03 ± 0.038,–,–
CAAGAU,1.97 ± 0.009,2.01 ± 0.025,–,–
UUUGCU,2.043 ± 0.02,2.01 ± 0.084,0.805 ± 0.017,0.618 ± 0.24
UUUGCA,1.981 ± 0.0053,1.99 ± 0.032,0.00421 ± 0.011,-0.275 ± 0.0052
UUUGCG,1.867 ± 0.0062,1.98 ± 0.042,0.0287 ± 0.045,0.0548 ± 0.11
UUUGGA,1.9 ± 0.015,1.98 ± 0.029,0.333 ± 0.049,0.499 ± 0.056
UUUGGG,1.71 ± 0.022,1.94 ± 0.048,0.388 ± 0.062,0.73 ± 0.13
UACAAC,2.0034 ± 0.0014,2.02 ± 0.034,–,–
GUUCUA,2.03 ± 0.0066,2.035 ± 0.0031,0.333 ± 0.067,0.412 ± 0.031
CUUGAG,1.9276 ± 0.0002,2.005 ± 0.0023,0.41 ± 0.091,0.534 ± 0.33
CUUGAU,1.97 ± 0.018,2.008 ± 0.018,0.145 ± 0.1,0.602 ± 0.33
CAAAAG,1.903 ± 0.0085,1.945 ± 0.015,–,–
CAAAAA,1.962 ± 0.007,1.96 ± 0.025,–,–
GAAAGC,1.966 ± 0.0051,2.0058 ± 0.0012,–,–
GAAAGU,1.9823 ± 0.00097,2.02 ± 0.034,–,–
UAAACU,2.008 ± 0.013,2.02 ± 0.058,–,–

Variant,"normalized RNA/DNA level without ligand (log10) ((6R,S)-folinic acid [1])","normalized RNA/DNA level with ligand (log10) ((6R,S)-folinic acid [2])","FACS-Seq fitted mean (log10) ((6R,S)-folinic acid [3])","FACS-Seq fitted mean (log10) ((6R,S)-folinic acid [4])"
UAAACA,1.96 ± 0.02,1.994 ± 0.016,–,–
UAAACC,2.006 ± 0.0033,2.01 ± 0.043,–,–
GUUCGC,2.07 ± 0.024,2.05 ± 0.025,0.511 ± 0.017,0.368 ± 0.16
GUUCGG,2.003 ± 0.0021,1.985 ± 0.0024,0.155 ± 0.11,0.178 ± 0.021
GUUUUA,2 ± 0.0092,2.02 ± 0.029,0.327 ± 0.011,0.461 ± 0.024
GUUUUC,2.03 ± 0.021,2 ± 0.028,0.421 ± 0.019,0.346 ± 0.14
AAAGGU,1.939 ± 0.0029,2.01 ± 0.032,–,–
UAACCC,1.991 ± 0.011,2 ± 0.035,–,–
UAACCU,2.01 ± 0.024,2.018 ± 0.0082,–,–
GAAUCC,2.023 ± 0.0051,2.02 ± 0.061,–,–
GAAUCU,2.011 ± 0.0071,2.04 ± 0.037,–,–
UAAGCC,2 ± 0.0023,2.03 ± 0.038,–,–
GAAACC,2.035 ± 0.013,2.03 ± 0.033,–,–
GAAACG,1.961 ± 0.0057,2 ± 0.038,–,–
GAAACA,2.017 ± 0.018,2.04 ± 0.026,–,–
AAAGUU,1.972 ± 0.0027,2.01 ± 0.016,–,–
AAAGUA,1.937 ± 0.014,2 ± 0.037,–,–
CAAUAC,1.984 ± 0.017,1.97 ± 0.038,–,–
CAAUAU,1.95 ± 0.025,2 ± 0.033,–,–
AUUGGA,1.941 ± 0.0048,2.01 ± 0.038,0.168 ± 0.094,0.119 ± 0.29
UUUCAG,1.916 ± 0.013,2.011 ± 0.02,0.263 ± 0.0041,-0.0672 ± 0.0029
GAAUAG,1.9357 ± 0.0015,2.01 ± 0.042,–,–
GAAUAU,2.038 ± 0.015,2.02 ± 0.051,–,–
CAAGGU,1.976 ± 0.0082,1.97 ± 0.024,–,–
